Data as given in patent US20210386836.

Legend:
[1] = molecular target: BSA, P02769
[2] = molecular target: T1, C1s, P09871
T1 chain: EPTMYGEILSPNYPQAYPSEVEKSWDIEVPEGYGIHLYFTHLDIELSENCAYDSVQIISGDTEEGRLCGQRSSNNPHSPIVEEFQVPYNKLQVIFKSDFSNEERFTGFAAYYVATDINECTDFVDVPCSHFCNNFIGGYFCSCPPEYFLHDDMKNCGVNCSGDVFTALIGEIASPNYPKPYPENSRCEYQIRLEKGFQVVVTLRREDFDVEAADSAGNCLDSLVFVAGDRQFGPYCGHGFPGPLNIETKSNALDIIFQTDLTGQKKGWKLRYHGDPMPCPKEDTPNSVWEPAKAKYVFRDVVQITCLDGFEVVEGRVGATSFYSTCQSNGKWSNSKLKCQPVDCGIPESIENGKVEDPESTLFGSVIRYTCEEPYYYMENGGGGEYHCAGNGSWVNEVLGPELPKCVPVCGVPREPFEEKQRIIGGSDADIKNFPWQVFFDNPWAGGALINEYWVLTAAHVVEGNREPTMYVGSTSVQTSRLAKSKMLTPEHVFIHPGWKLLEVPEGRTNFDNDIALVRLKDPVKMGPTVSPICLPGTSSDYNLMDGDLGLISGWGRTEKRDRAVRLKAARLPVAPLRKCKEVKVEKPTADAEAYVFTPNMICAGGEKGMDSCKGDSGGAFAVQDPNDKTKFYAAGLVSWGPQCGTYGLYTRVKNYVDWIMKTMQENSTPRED

[3] = molecular target: T2, C2, P06681
T2 chain: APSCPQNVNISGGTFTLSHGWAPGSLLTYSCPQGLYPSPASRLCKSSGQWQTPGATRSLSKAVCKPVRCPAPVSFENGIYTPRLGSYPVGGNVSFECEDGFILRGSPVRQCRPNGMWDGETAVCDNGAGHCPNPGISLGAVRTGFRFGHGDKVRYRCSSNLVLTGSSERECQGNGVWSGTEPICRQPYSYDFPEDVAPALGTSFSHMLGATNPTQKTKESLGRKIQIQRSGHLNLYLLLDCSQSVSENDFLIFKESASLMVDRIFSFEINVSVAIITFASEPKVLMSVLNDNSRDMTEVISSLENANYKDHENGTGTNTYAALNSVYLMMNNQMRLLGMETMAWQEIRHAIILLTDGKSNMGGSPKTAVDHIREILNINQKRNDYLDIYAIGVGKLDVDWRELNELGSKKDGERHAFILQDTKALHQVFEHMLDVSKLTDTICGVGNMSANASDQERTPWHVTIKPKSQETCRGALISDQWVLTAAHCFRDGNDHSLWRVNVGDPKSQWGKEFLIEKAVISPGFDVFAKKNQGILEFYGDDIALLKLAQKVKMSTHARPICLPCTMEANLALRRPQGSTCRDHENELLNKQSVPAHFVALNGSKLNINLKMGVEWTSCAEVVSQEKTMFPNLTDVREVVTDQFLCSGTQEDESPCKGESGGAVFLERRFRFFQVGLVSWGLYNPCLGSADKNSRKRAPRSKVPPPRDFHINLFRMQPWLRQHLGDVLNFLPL

[4] = molecular target: T3, C2a, P06681
T3 chain: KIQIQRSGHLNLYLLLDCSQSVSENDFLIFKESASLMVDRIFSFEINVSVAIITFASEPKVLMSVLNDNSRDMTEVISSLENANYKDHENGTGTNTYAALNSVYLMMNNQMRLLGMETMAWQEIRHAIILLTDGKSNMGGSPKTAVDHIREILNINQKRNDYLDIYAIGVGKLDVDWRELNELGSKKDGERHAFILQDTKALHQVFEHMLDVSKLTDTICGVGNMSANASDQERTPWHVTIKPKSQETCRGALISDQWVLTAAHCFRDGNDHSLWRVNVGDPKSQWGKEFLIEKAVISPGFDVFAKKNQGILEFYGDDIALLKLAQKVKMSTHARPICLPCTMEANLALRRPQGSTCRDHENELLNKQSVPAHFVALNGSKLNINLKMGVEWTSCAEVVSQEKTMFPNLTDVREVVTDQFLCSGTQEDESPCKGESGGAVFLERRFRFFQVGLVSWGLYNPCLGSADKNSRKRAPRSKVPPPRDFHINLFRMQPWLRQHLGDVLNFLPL

[5] = molecular target: C3, P01024
[6] = molecular target: C5, P01031
[7] = molecular target: Factor B, P00751
[8] = molecular target: Factor XI
[9] = molecular target: Factor XIII
[10] = molecular target: HSA, P02768
[11] = molecular target: IL-10
[12] = molecular target: IL-8
[13] = molecular target: mouse C3a, P01027
mouse C3a, P01027, sequence (P01027 671-748): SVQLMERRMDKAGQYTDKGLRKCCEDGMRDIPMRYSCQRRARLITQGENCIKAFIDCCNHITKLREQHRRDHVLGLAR

Factor B, P00751, sequence (P00751 26-764): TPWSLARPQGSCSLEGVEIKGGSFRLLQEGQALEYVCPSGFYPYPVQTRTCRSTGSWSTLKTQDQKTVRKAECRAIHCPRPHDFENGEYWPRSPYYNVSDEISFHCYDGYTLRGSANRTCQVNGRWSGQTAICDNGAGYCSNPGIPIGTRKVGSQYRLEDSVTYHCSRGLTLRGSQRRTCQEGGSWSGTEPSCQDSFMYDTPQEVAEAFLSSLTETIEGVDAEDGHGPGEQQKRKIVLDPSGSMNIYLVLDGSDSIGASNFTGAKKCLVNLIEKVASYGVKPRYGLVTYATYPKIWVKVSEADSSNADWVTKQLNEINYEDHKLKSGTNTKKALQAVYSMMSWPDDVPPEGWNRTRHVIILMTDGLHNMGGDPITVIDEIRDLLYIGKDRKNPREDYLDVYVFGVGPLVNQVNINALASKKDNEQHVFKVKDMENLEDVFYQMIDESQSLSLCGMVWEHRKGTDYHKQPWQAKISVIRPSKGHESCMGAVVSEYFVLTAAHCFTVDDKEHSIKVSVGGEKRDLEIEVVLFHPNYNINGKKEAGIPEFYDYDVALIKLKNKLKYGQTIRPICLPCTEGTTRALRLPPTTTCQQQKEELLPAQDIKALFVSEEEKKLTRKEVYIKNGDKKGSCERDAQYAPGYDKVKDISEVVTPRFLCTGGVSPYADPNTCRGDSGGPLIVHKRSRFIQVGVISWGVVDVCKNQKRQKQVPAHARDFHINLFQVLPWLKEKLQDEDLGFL
BSA, P02769, sequence (P02769 25-607): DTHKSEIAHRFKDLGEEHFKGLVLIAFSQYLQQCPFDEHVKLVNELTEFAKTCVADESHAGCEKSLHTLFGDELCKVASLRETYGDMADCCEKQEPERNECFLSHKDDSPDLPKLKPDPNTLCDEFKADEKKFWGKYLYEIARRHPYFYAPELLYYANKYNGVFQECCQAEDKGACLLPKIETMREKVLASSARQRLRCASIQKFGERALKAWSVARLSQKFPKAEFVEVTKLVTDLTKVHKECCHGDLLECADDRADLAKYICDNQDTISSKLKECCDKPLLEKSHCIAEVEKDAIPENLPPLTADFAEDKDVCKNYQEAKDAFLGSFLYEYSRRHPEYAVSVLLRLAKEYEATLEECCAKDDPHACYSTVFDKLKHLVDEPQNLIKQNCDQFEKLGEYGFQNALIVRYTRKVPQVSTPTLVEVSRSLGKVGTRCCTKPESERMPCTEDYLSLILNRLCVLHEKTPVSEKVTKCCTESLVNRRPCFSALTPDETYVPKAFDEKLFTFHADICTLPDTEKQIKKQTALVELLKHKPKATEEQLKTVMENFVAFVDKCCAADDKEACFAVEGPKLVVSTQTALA

B1: PrtI(ProB) (protein)
chain: AIGETSVQNVKVSVAKNESDSQKFNNSQNLEQKTPQAAAANQNGSQVQNDHTETQLQNQQTTQSQVTQAHTEENNASSIPEPANQADHVKGNVQSAWDQGYKGQNTVVAVIDSGADTSHKDFQTMPSNPKLKQEDVQSKIDQQGYGKYVNEKFPYVYNYADRDNDYIKSDDNNQXNDSPHGQHVSGIIAADGHPEGDQQYVVGVAPEAQLMQLRVFGQFSDEKTDDVARAIYDATNLGADVIQMSLGQGVADQQLTNIEQKAVQYAIDHGVFVSISASNNGNSASVDNPSKVTAKGYGSGSEAGNYEPLNSGTVANPGASKNALTVAAETSGTGKDSDMASFSSWGPLSDFSLKPDLSAPGYQVVSTVNDNQYQTMSGTSMAGPFAAGSAALVIQRLKQTNPELKGAELVAATKALLMNSAKVQTQNGYTTPVSPRRQGAGQIDVGAATANPVYVTAADGTSSLSLRQVDEKTTFTLTFHNLTDQEQSYSFNDLGGGYTEQRDPDSGVFHEVQLAGAHVNGVGNFTLAPKEVKDLQYTLDLQGLNKNQPVEGWLHFTNDKDKSTVVVPYLAYYGDLTSENVFDQNANEEKPDIQGNRFVNENNYPLGVTDQESLKQLVNVDSDYNWQEVAKLYESGKVAFSPNDDHQSDLIKPYAYLKQNVKDLKVEILDAKGNVVRVVSDVQGVDKSYDESGVTKDASLSVSMRDNPDAFEWDGKVYDTKTGQMVTAPDGQYTYRFVATLWNEGPNQKQTADFPVVVDTQAPSLSVKYDSATHTLSGNYEDKGAGFTDYSYVTVQVNDKVFGYKLNEGESGFDNSEKTKGHFNFTLSSDALDALSGSLNKVSVTLSDVANNTTVKTVDVPAVKDQPAVSVWNATEGVEFNKNSKDYNKENDTYTLYGSAAQDFYLNGALVQVRDGKYEVPVKTTTQDLVFSTDQAGKNVLKSFTTFTPKAFFNWQNVDGFDGNFGVNIYSVKTNDPNNAVVQAAVPLGKNVKAYAQDYFTGEVYKGQVENGVATFHVHTSINQGEDGIFKRALLTGWSEVDGPAYNDKQVTSKAGVASSNHLGVYYTTDKVNRKVYTDRADLGVDVQDEAADLSSFGPTAYPGHALADLTTRTDPNPAIHFDYLNDNDTTRFGQNAVTDGYYDSVTKKFTVTGHVDPEVKSLTVLGDSSDENAPQNQVKLGKDGKFSFSFTTENVGQRPVAYIYTDQNGQKVRGTLNVVLDTVAPTLNVDQVNGNELEVKTNNPLFKLSGVVNDNLDGYRLYVNGNNIYREFLNSGYNKLAGLNTDGTDVNPYGPHNFEESFNLNDDNNQPTTHVFTIYVVDQVGNKVEKKIAVNYDPDYVA
modifications: not fully specified; X: residue not identified in the source
[1]
  digestion (SDS-PAGE): did not digest
[2]
  proteolytic activity (SDS-PAGE): None of the complement proteins tested show evidence of breakdown
[3]
  proteolytic activity (SDS-PAGE): None of the complement proteins tested show evidence of breakdown
[4]
  proteolytic activity (SDS-PAGE): None of the complement proteins tested show evidence of breakdown
[5]
  proteolytic activity (SDS-PAGE): None of the complement proteins tested show evidence of breakdown
[6]
  proteolytic activity (SDS-PAGE): None of the complement proteins tested show evidence of breakdown
[7]
  proteolytic activity (SDS-PAGE): None of the complement proteins tested show evidence of breakdown
[8]
  digestion (SDS-PAGE): did not digest
[9]
  digestion (SDS-PAGE): did not digest
[10]
  digestion (SDS-PAGE): did not digest
[11]
  protein cleavage assay (SDS-PAGE): has activities against
[12]
  protein cleavage assay (SDS-PAGE): has activities against
[13]
  protein cleavage assay (SDS-PAGE): has activities against
